This passage reports inhibition of forskolin-stimulated cAMP production, 25 and 100 nM uncleaved GlyRS results from patent publication US20100028352A1.

The target of this test is Gi-GPCRs on endothelial cells. Nature of the test: cell-based or functional assay.

The substance “Full-length recombinant human GlyRS (from UniProt P41250 55-739) (enzyme)” gave an inhibition of forskolin-stimulated cAMP production, 25 and 100 nM uncleaved GlyRS of 10%.
